In US20110104157A1, “LIVER CANCER DRUG” (Chugai Seiyaku Kabushiki Kaisha, priority 2008, published 2011):

Experiments:
[1] = thermal denaturation midpoint temperature (Tm) by DSC, Reference Example 3; type: physicochemical; settings: Fab domain peak, sodium acetate buffer pH 6.0 with 150 mmol/L NaCl, about 1 K/minute
Protocol: The thermal denaturation midpoint temperature (Tm) was determined by the top of the denaturation peak in the thermogram (Cp versus T) obtained after heating the test sample solution at a constant programmed heating rate. The Tm value of the humanized H0L0 antibody was measured using a sample solution for DSC measurement prepared as described in the following. The antibody solution (corresponding to 50 to 100 μg) filled in a dialysis membrane was first dialyzed for 24 hours against a dialysis external solution of 20 mol/L sodium acetate buffer solution (pH 6.0) containing 150 mmol/L sodium chloride. Subsequently, the sample solution was adjusted its antibody concentration of 50 to 100 μg/mL with dialysis external solution and used as the sample solution for DSC measurement.
A suitable DSC instrument, for example, DSC-II (Calorimetry Sciences Corporation), is used for this experiment. The sample solution prepared as described above and the reference solution (dialysis external solution) were thoroughly degassed, and each of these test specimens was placed in a calorimeter cell and was thermally equilibrated at 40° C. A DSC scan was then run from 40° C. to 100° C. at a scan rate of approximately 1 K/minute. The results of this measurement are given as the top of the denaturation peak as a function of temperature.

[2] = test system: HuH-7 xenograft; experiment: Example 2 antitumor effect, HuH-7 xenograft mouse model (hGC33 and Sorafenib); type: in vivo; settings: hGC33 5 mg/kg i.v. weekly x3 alone or Sorafenib 80 mg/kg oral 5 times per week x3 alone
Protocol: (§1) HepG2 cells or HuH-7 cells (5×10^5 cells) dispersed in 50% Matrigel (Becton Dickinson) were subcutaneously implanted. When the tumor volume reached 250 mm^3, the mice were divided into groups and administration commenced.
(§2) The asterisks in the figures indicate that P<0.05, based on the Dunnett's test. […] The open circles indicate the change in body weight in the group given the vehicle. […] The open squares indicate the change in body weight in the group given only Sorafenib in a dose of 80 mg/kg. […]

[3] = Example 2 body weight loss in HepG2 xenograft mouse model; type: in vivo; settings: Sorafenib 80 mg/kg oral, relative to tumor-associated weight loss of the model
Protocol: as §1, §2

[4] = Example 5 body weight loss in HepG2 xenograft mouse model; type: in vivo; settings: Sorafenib 80 mg/kg oral
Source text: Sorafenib was synthesized according to Organic Process Research & Development (2002) 6, 777-781.
Th data is expressed by the time course of the body weight of the mice (mean±SD).

[5] = test system: liver cancer; settings: liver cancer patients, phase II; cited from earlier work
[6] = target: T1, soluble GPC3 core polypeptide (Homo sapiens (Human), UniProt P51654 25-563); experiment: competitive ELISA, soluble GPC3 core polypeptide on plate, competitor biotinylated H0L0
T1 construct: It was immobilised on the ELISA plate at 1 ug/mL; also called glypican 3; antigen glypican 3
T1 sequence (P51654 other isoform, or with tags, fused parts or gaps limits assumed): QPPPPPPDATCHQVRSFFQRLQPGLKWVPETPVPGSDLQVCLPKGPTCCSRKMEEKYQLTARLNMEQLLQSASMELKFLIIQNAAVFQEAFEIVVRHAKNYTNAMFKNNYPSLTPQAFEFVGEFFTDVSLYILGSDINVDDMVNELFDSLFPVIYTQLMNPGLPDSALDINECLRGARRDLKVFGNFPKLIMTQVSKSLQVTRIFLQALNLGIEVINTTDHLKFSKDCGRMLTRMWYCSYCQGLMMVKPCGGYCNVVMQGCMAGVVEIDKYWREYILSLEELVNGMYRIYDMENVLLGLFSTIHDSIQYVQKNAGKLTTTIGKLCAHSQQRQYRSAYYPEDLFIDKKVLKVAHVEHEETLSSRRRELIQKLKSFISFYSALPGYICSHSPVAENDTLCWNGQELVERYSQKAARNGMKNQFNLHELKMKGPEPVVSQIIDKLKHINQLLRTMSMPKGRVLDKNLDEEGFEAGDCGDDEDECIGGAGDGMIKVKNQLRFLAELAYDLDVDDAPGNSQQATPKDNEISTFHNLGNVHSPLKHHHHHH
Protocol: 100 μL of the soluble GPC3 core polypeptide (SEQ ID NO: 36) at 1 μg/mL was added to each well of a 96-well plate. The soluble GPC3 core polypeptide was immobilized on the plate by allowing the plate to stand overnight at 4° C. The soluble GPC3 core polypeptide immobilized on the plate was washed 3 times with a washing buffer using a Skan WASHER400 (Molecular Devices); and blocked with 200 μL blocking buffer at 4° C. for at least 30 min. The blocked plate on which soluble GPC3 core polypeptide was immobilized was then washed 3 times with washing buffer using the Skan WASHER400. […] The plate was left stand for 1 hour at room temperature, then washed 5 times with washing buffer using the Skan WASHER400 (Molecular Devices). 100 μL goat anti-streptavidin alkaline phosphatase (ZYMED), diluted 20,000× with substrate buffer, was added to each well, and the resulting plate was left stand for 1 hour at room temperature, and then washed 5 times with washing buffer using the Skan WASHER400. Phosphatase Substrate (Sigma) was prepared at 1 mg/mL in the substrate buffer, added at 100 μL, per well for 1 hour. The absorbance at 405 nm of the reaction solution in each well was measured using a Benchmark Plus (BIO-RAD), with the control absorbance at 655 nm.

[7] = pI value by isoelectric electrophoresis, Reference Example 3; type: physicochemical
Protocol: The pI value of each antibody was calculated based on the analysis by isoelectric electrophoresis. Electrophoresis was carried out as described in the following. Using a Phast-System Cassette (Amersham Bioscience), Phast-Gel Dry IEF (Amersham Bioscience) gel was swollen for about 60 minutes with a swelling solution with the composition given below.
• 1.5 mL 10% glycerol • 100 μL Pharmalyte 8-10.5 for IEF (Amersham Bioscience)
• 1.5 mL purified water • 20 μL Pharmalyte 8-10.5 for IEF (Amersham Bioscience) • 80 μL Pharmalyte 5-8 for IEF (Amersham Bioscience)
Approximately 0.5 μg antibody was loaded on the swollen gel and isoelectric electrophoresis was run using the PhastSystem (Amersham Bioscience) controlled by the program described below. The sample was added to the gel at Step 2 of this program. A Calibration Kit for pI (Amersham Bioscience) was used for the pI markers.
After electrophoresis, the gel was fixed with 20% TCA and silver staining was then carried out using a Silver Staining Kit, Protein (Amersham Bioscience) according to the instructions provided with the kit. After staining, the isoelectric point of each antibody (test sample) was calculated based on the already known isoelectric points of the pI markers.

[8] = target: soluble GPC3 core polypeptide (Homo sapiens, UniProt P51654, S495A/S509A); experiment: competitive ELISA of binding activity against biotinylated humanized H0L0 antibody; settings: for antigen binding activity compared with humanized H0L0 antibody: Reference Example 3
soluble GPC3 core polypeptide (Homo sapiens, UniProt P51654, S495A/S509A), sequence (P51654 with tags, fused parts or gaps S495A/S509A): as the sequence (P51654 other isoform, or with tags, fused parts or gaps limits assumed) above
Protocol: The humanized H0L0 antibody and its point mutation-modified antibodies purified in (1) was evaluated by competitive ELISA. 100 μL of the soluble GPC3 core polypeptide (SEQ ID NO: 36) at 1 μg/mL was added to each well of a 96-well plate. The soluble GPC3 core polypeptide was immobilized on the plate by allowing the plate to stand overnight at 4° C. The soluble GPC3 core polypeptide immobilized on the plate was washed 3 times with a washing buffer using a Skan WASHER400 (Molecular Devices); and blocked with 200 μL blocking buffer at 4° C. for at least 30 min. The blocked plate on which soluble GPC3 core polypeptide was immobilized was then washed 3 times with washing buffer using the Skan WASHER400. Subsequently, each well of the plate received 200 μL of a mixture containing 100 μL of biotinylated humanized H0L0 antibody (final concentration=0.3 μg/mL) and 100 μL of the humanized H0L0 antibody or its point mutation-modified antibody (at various concentrations). The humanized H0L0 antibody was biotinylated using a Biotin Labeling Kit (Roche) according to the instructions provided with the kit. The plate was left stand for 1 hour at room temperature, then washed 5 times with washing buffer using the Skan WASHER400 (Molecular Devices). 100 μL goat anti-streptavidin alkaline phosphatase (ZYMED), diluted 20,000× with substrate buffer, was added to each well, and the resulting plate was left stand for 1 hour at room temperature, and then washed 5 times with washing buffer using the Skan WASHER400. Phosphatase Substrate (Sigma) was prepared at 1 mg/mL in the substrate buffer, added at 100 μL, per well for 1 hour. The absorbance at 405 nm of the reaction solution in each well was measured using a Benchmark Plus (BIO-RAD), with the control absorbance at 655 nm.
The binding activity to the antigen glypican 3 of each point mutation pI modified antibody was measured using the method described in Reference Example 3.

[9] = pI value by electrophoresis with PhastGel IEF 4-6.5, Reference Example 4; type: physicochemical; settings: for pI value: PhastGel IEF 4-6.5
Protocol: The pI values of the Hd1.8Ld1.6 antibody and pH7pL16 antibody were measured by electrophoresis with PhastGel IEF 4-6.5 (GE Healthcase) using the method described in Reference Example 3 or similar method.

[10] = Tm of Fabs by VP-DSC, Reference Example 4; type: physicochemical; settings: PBS, 20° C. to 115° C., about 4K/min
Protocol: The Tm values of Fabs obtained from Hd1.8Ld1.6 antibody and pH7pL16 antibody were measured with VP-DSC (Micro Cal) using the method similar to Reference Example 3. In this experiment, PBS was used as a dialysis solution, and the antibody concentration in the test solution for DSC measurement was adjusted to 25-100 μg/ml. DSC scanning was set from 20° C. to 115° C. at the scanning rate of about 4K/min, with the reference solution (dialysis solution) and DSC measurement test solution. The thermal denaturation midpoint temperature of the Fabs of the Hd1.8Ld1.6 antibody and pH7pL16 antibody was 77.5 and 74.7° C., respectively.

[11] = test system: liver cancer cells; settings: against liver cancer cells; see WO 2006/006693; cited from earlier work

Synagis: example of existing antibodies
Tm value (thermal denaturation midpoint temperature) [1]: 85.4 °C

CNC(=O)c1cc(Oc2ccc(NC(=O)Nc3ccc(Cl)c(C(F)(F)F)c3)cc2)ccn1 [Sorafenib, 4-[4-[[4-chloro-3-(trifluoromethyl)phenyl]carbamoylamino]phenoxy]-N-methylpyridine-2-carboxamide]
tumor growth, single agent [2]: suppressed
weight loss with Sorafenib alone [3]: further enhanced
weight loss with Sorafenib alone [4]: enhanced

CS(=O)(=O)CCNCc1ccc(-c2ccc3ncnc(Nc4ccc(OCc5cccc(F)c5)c(Cl)c4)c3c2)o1 [lapatinib]
rate of response [5]: 0%
time to progression [5]: 1.8 months

B1: H15L4 antibody (antibody, V domains shown)
VH: QVQLVQSGAEVKKPGASVKVSCKASGYTFTDYEMHWIRQPPGQGLEWIGAIDPKTGDTAYSQKFKGRVTLTADKSTSTAYMELSSLTSEDTAVYYCTRFYSYTYWGQGTLVTVSS
VL: DIVMTQSPLSLPVTPGEPASISCRSSQSLVHSNRNTYLHWYQQKPGQAPRLLIYKVSNRFSGVPDRFSGSGSGTDFTLKISRVEAEDVGVYYCSQNTHVPPTFGQGTKLEIK
binding result [6]: binds

B2: hGC33: humanized anti-glypican 3 antibody, H chain variable region SEQ ID NO: 3, L chain SEQ ID NO: 4 (antibody, V domains shown)
VH: QVQLVQSGAEVKKPGASVKVSCKASGYTFTDYEMHWVRQAPGQGLEWMGALDPKTGDTAYSQKFKGRVTLTADKSTSTAYMELSSLTSEDTAVYYCTRFYSYTYWGQGTLVTVSS
VL: DVVMTQSPLSLPVTPGEPASISCRSSQSLVHSNGNTYLHWYLQKPGQSPQLLIYKVSNRFSGVPDRFSGSGSGTDFTLKISRVEAEDVGVYYCSQNTHVPPTFGQGTKLEIK
modifications: Modified antibody
tumor growth, single agent [2]: suppressed

B3: Hd1.8Ld1.6: antibody composed of Hspd1.8 (SEQ ID NO: 27) and Lspd1.6 (SEQ ID NO: 29), lowered pI (antibody, V domains shown)
VH: QVQLVQSGAEVKKPGASVTVSCKASGYTFTDYEMHWIRQPPGEGLEWIGAIDPKTGDTAYSQSFQDRVTLTADKSTSTAYMELSSLTSEDTAVYYCTRFYSYTYWGQGTLVTVSS
VL: DIVMTQSPLSLPVTPGEPASISCRASESLVHSNRNTYLHWYQQKPGQAPRLLIYKVSNRFSGVPDRFSGSGSGTDFTLTISSLQAEDVGVYYCSQNTHVPPTFGQGTKLEIK
modifications: Modified antibody
reduction of pI relative to humanized H0L0 antibody [7]: 1.5
pI value ([7]; isoelectric electrophoresis, Phast-Gel Dry IEF): 7.4
antigen binding activity compared with humanized H0L0 antibody [8]: about the same
pI value [9]: 7.47
thermal denaturation midpoint temperature of the Fabs [10]: 77.5 °C

B4: pH7pL16: pI modified humanized anti-glypican 3 antibody, pH7 (SEQ ID NO:31) and pL16 (SEQ ID NO:33) (antibody, V domains shown)
VH: QVQLVQSGAEVKKPGASVTVSCKASGYTFTDYEMHWIRQPPGEGLEWIGAIDPKTGDTAYSESFQDRVTLTADKSTSTAYMELSSLTSEDTAVYYCTRFYSYTYWGQGTLVTVSS
VL: DIVMTQSPLSLPVTPGEPASISCQASESLVHSNRNTYLHWYLQKPGQSPQLLIYKVSNRFSGVPDRFSGSGSGTDFTLKISRVEAEDVGVYYCSQNTHVPPTFGQGTKVEIE
modifications: Modified antibody
binding activity to glypican 3 compared with humanized H0L0 antibody ([8]; Reference Example 4): comparative
pI lower than that of Hd1.8Ld1.6 antibody by [9]: 0.95
pI value [9]: 6.52
thermal denaturation midpoint temperature of the Fabs [10]: 74.7 °C

B5: H15L4: antibody combining heavy chain H15 (SEQ ID NO: 34) and light chain L4 (SEQ ID NO: 35) (antibody, V domains shown)
VH: QVQLVQSGAEVKKPGASVKVSCKASGYTFTDYEMHWIRQPPGQGLEWIGAIDPKTGDTAYSQKFKGRVTLTADKSTSTAYMELSSLTSEDTAVYYCTRFYSYTYWGQGTLVTVSS
VL: DIVMTQSPLSLPVTPGEPASISCRSSQSLVHSNRNTYLHWYQQKPGQAPRLLIYKVSNRFSGVPDRFSGSGSGTDFTLKISRVEAEDVGVYYCSQNTHVPPTFGQGTKLEIK
modifications: Modified antibody
antigen binding activity compared with humanized H0L0 antibody [8]: about the same

B6: Hspd1.8Lspd1.6 (Hd1.8Ld1.6) antibody (antibody, V domains shown)
VH: QVQLVQSGAEVKKPGASVTVSCKASGYTFTDYEMHWIRQPPGEGLEWIGAIDPKTGDTAYSQSFQDRVTLTADKSTSTAYMELSSLTSEDTAVYYCTRFYSYTYWGQGTLVTVSS
VL: DIVMTQSPLSLPVTPGEPASISCRASESLVHSNRNTYLHWYQQKPGQAPRLLIYKVSNRFSGVPDRFSGSGSGTDFTLTISSLQAEDVGVYYCSQNTHVPPTFGQGTKLEIK
binding result [6]: binds

B7: GC33: Mouse anti-human glypican 3 monoclonal antibody, clone GC33, WO 2006/006693; variable regions SEQ ID NOs: 1 and 2 (antibody, V domains shown)
VH: QVQLQQSGAELVRPGASVKLSCKASGYTFTDYEMHWVKQTPVHGLKWIGALDPKTGDTAYSQKFKGKATLTADKSSSTAYMELRSLTSEDSAVYYCTRFYSYTYWGQGTLVTVSA
VL: DVVMTQTPLSLPVSLGDQASISCRSSQSLVHSNGNTYLHWYLQKPGQSPKLLIYKVSNRFSGVPDRFSGSGSGTDFTLKISRVEAEDLGVYFCSQNTHVPPTFGSGTKLEIK
modifications: Modified antibody
ADCC and CDC activities [11]: greater
